The text below walks through data of the supplement of paper PMC10126150.

± gives the standard deviation of the averaged measurements.

The subject of this data set is ATP. As to the kind of experiment: switch fluorescence ratio, 500 uM ATP over buffer (Cy3 cluster intensity, sum of 5 cycles each) (fold (ratio)); higher = stronger signal-on switching upon ATP binding; sequences stand for … in TCGTCGGCAGCGTCAGATGTGTATAAGAGACAGTTTTTTTTTTTTTTTTTTTTTTTTT…TC. The note with it: aptamer strand: ATP DNA aptamer (quencher-CACCTGGGGGAGTATTGCGGAGGAAGG + anchor), 100 nM annealed; ATP concentration: 500 uM. The method, boiled down: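 Between each of five buffer/ATP cycles, the flow-cell was stripped with NaOH and re-annealed. Each cycle imaged Cy3-labelled switching-strand clusters, annealed to 100 nM quencher-labelled ATP aptamer on a modified Illumina MiSeq flow-cell, first in selection buffer and then after 15 min with 500 uM ATP at 22 °C. The fluorescence ratio is summed target-cycle over summed buffer-cycle Cy3 intensity per cluster, averaged per switch-domain sequence, with clusters outside 100-1000 RFU excluded.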
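Note: ATP exposure 15 min at 22 °C before imaging.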

With TCAACGGTCT, the switch fluorescence ratio was 0.9955 ± 0.0048.
Consider AGGATGATGT, for which the switch fluorescence ratio stood at 1.01 ± 0.032.
Consider TCATTCGTCG, for which the switch fluorescence ratio is 0.9712 ± 0.0031.
The result for TATTATCTTT reads 1.01 ± 0.024; that for GGTTCTGTGG, 1.03 ± 0.0094.
Take TCATATTTAT: the switch fluorescence ratio is 0.996 ± 0.024.
Then CGGGGTTAGC, with 1.01 ± 0.014; and ACACGGGTTA, with 1 ± 0.047.
The result for ATAAGGCTAA reads 0.982 ± 0.016; that for ACTCGGCCGG, 1.001 ± 0.009; that for CCATCGGACA, 1.016 ± 0.0064.
TATTTTTTAG: the switch fluorescence ratio was 0.96 ± 0.013.
The result for TTTTTTGAAT reads 0.995 ± 0.027; that for ATCTGTATGT, 0.968 ± 0.017; that for GCTATCTCTT, 1.01 ± 0.012.
For the sequence TTTCCGTTAT, the switch fluorescence ratio was determined as 2.41 ± 1.9.
As to CTTTCTGGGG, the switch fluorescence ratio came out at 0.991 ± 0.017.
Then ATTTGATGAG, with 0.987 ± 0.045; and CTAGGTGTGA, with 1.07 ± 0.017; and ACGTTTAGAA, with 1.01 ± 0.029.
Then GATTATGCTG, with 1.17 ± 0.06; and TTCTCGGCTA, with 1.56 ± 0.61.
Then CATTCGAATA, with 1.08 ± 0.037.
Turning to TATCGGGGGG, the switch fluorescence ratio worked out at 0.996 ± 0.043.
The result for TAATTTTGAG reads 0.9957 ± 0.0029; that for CGGGGCTTAT, 0.9909 ± 0.0014.
On to TAAATCCTA, for which the switch fluorescence ratio worked out at 1.02 ± 0.022.
Regarding TATCGTTGTA, the switch fluorescence ratio turned out to be 0.93881 ± 0.00024.
The result for TTTTTGCAAT reads 1.43 ± 0.24.
Then ACGCAGGTAT, with 1.04 ± 0.061.
Then ATACTGCTCT, with 0.968 ± 0.059.
Regarding GATCGGGGCA, the switch fluorescence ratio came out at 0.97679 ± 0.00094.
The result for TGGGGAATCG reads 1.01 ± 0.046; that for ATTAATTATC, 0.993 ± 0.031; that for GTGGCATGGG, 1 ± 0.014.
The result for CATTTATTTG reads 1.01 ± 0.014.
Then GTTACATGCG, with 0.976 ± 0.02; and ACTCTAGTAC, with 1.31 ± 0.034.
On to TTTCCTCTGG, for which the switch fluorescence ratio came to 1.95 ± 1.4.
Consider TAGTGAGTAC, for which the switch fluorescence ratio was determined as 0.93 ± 0.11.
Then ATTGGGCGCT, with 0.99269 ± 2.5e-05; and GCTGTAGTGG, with 0.998 ± 0.051; and AATATGCTTT, with 1.006 ± 0.0048.
Take TTTGGCATGG: the switch fluorescence ratio is 1.024 ± 0.0073.
Then TTTATCGGGA, with 0.978 ± 0.017; and ACGTATCTTG, with 1.08 ± 0.038.
Regarding AATATATGCA, the switch fluorescence ratio is 0.991 ± 0.034.
In the case of AATTTTTCTC, the switch fluorescence ratio amounted to 1.05 ± 0.1.
GACGGCTATG: the switch fluorescence ratio came out at 1 ± 0.048.
For the sequence ATAGAATAGG, the switch fluorescence ratio amounted to 0.9867 ± 0.0065.
For TTTCGTGTAG, the switch fluorescence ratio was 1 ± 0.032.
Take GGGGTGGGTA: the switch fluorescence ratio turned out to be 0.998 ± 0.028.
The result for GAGCTTTGAT reads 0.996 ± 0.024; that for AGAGGTTTTG, 1.01 ± 0.042.
The result for TGTTTGGGCC reads 1.03 ± 0.011; that for CTGGGTGGCG, 1.01 ± 0.069.
As to TGCAGGCCAA, the switch fluorescence ratio worked out at 1.08 ± 0.026.
Then GTGGTTTATA, with 1.01 ± 0.021.
Then GATTCAAAGG, with 0.9911 ± 0.004.
Regarding TAAATAGGGC, the switch fluorescence ratio stood at 1.02 ± 0.045.
Then GTTTAGAGGA, with 1 ± 0.025; and AATTTTACGA, with 1.04 ± 0.024.
Take GTTTCTTAGA: the switch fluorescence ratio was 0.978 ± 0.036.
Then TTTGGGTTCT, with 1.03 ± 0.031.
For the sequence ATCATCGGGA, the switch fluorescence ratio is 1.01 ± 0.013.
Then ATGGCGGCGG, with 1.01 ± 0.014; and TACGGGCTTA, with 1.007 ± 0.0044.
Then TGGGACCCGT, with 1.04 ± 0.038.
For CACTAGCTCG, the switch fluorescence ratio came out at 1.02 ± 0.021.
The result for TGGCCATAGG reads 0.999 ± 0.041; that for ATTGAGAGCA, 0.985 ± 0.021; that for AGTAGGTTTT, 1.04 ± 0.078.
For AAGTATATGG, the switch fluorescence ratio came out at 1.03 ± 0.029.
The result for TTTCAGTTCT reads 0.9773 ± 0.005; that for CATTTAGACG, 1.01 ± 0.11; that for AGTTGTGCAG, 1.02 ± 0.062.
The result for TGAAAATTCG reads 1.08 ± 0.11; that for TTTAGGATTT, 0.985 ± 0.027; that for GTTTTATTAG, 0.951 ± 0.032.
The result for TTGTTTAAGA reads 1.03 ± 0.082; that for CGACCCTGGA, 1.105 ± 0.01.
For the sequence GGGGTTAACT, the switch fluorescence ratio was 0.975 ± 0.022.
Then TGGAAAATTT, with 1.01 ± 0.0059; and GTTTAATCTT, with 0.9896 ± 0.0031.
For TCCTCAGCGT, the switch fluorescence ratio was 3 ± 1.
As to GGGGTAAATC, the switch fluorescence ratio was determined as 1.01 ± 0.024.
Then GCGTGCAGGA, with 1.027 ± 0.01.
Then TTGCGATTTT, with 0.993 ± 0.028; and AGTGGGGGG, with 1.0071 ± 0.001; and CATGTACGTG, with 1.0359 ± 9.4e-05.
The result for TTAGGAAGGG reads 0.956 ± 0.035; that for TGCTGTTTTT, 0.98095 ± 0.00061.
As to TATAGGGGGC, the switch fluorescence ratio stood at 1.03 ± 0.05.
Then AAGGACTATT, with 1.03 ± 0.011; and TCGGTCCTGC, with 1 ± 0.024; and TTCGGACCTT, with 1.21 ± 0.021.
Then CCCGGGGTTT, with 1.31 ± 0.36.
The result for CGAGTTAGGC reads 1.03 ± 0.063; that for CCGGGCTGGA, 1.08 ± 0.074; that for CCGGATGGAG, 1.02 ± 0.036.
With TTCACCCTTT, the switch fluorescence ratio was determined as 1.02 ± 0.049.
The result for AAGCGGTCGC reads 0.99 ± 0.017; that for AGGAAATAGG, 0.963 ± 0.049; that for GTCAAAGCCA, 1.02 ± 0.019.
The result for ATTTCTAACT reads 1.015 ± 0.0022; that for CTCTTTACGG, 1 ± 0.04; that for GTTGGGTTAT, 0.982 ± 0.017.
Turning to TAAGTGGGTA, the switch fluorescence ratio came to 0.991 ± 0.011.
Then GATGGATGGG, with 1.019 ± 0.0069.
Turning to GATAGGCAGG, the switch fluorescence ratio was determined as 0.998 ± 0.019.
With TTTTGTTTGC, the switch fluorescence ratio is 1.02 ± 0.03.
The result for ATCCGCGATT reads 4.88 ± 1.1; that for ACTTATGATA, 1.02 ± 0.054; that for TATGCATATG, 1.02 ± 0.048.
The result for TGGGGCGCTT reads 1 ± 0.033.
As to TAGGGAATTG, the switch fluorescence ratio stood at 1.01 ± 0.011.
The result for TATATGACGG reads 0.997 ± 0.027; that for ACTTGGGACT, 1.04 ± 0.047.
As to TTTGCGCGCG, the switch fluorescence ratio was found to be 0.992 ± 0.021.
Then GGTTTATTAA, with 0.983 ± 0.011.
